According to the supplement of paper PMC10567573:

B1: PPP2R2B (parent)
chain: RNTKRDVTLEASRENSKPRAILKP

Variants of: B1
Assay: protein stability index of a GFP-peptide fusion (GPS, HEK-293T) (PSI 1-6); higher = more stable
Conditions: c terminus: a fixed tail appended
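Further: lentivirally expressed fusions sorted by FACS into six bins by GFP to DsRed ratio, PSI derived from sequencing read proportions per bin multiplied by bin number.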

| Variant | protein stability index |
| --- | --- |
| RNTKRDVTLIASRENSKPRAILKP [E10I] | 4.14 |
| RNTKRDVTLHASRENSKPRAILKP [E10H] | 4.12 |
| RNTKRDVTLGASRENSKPRAILKP [E10G] | 4.32 |
| RNTKRDVTLNASRENSKPRAILKP [E10N] | 4.25 |
| RNTKRDVTLVASRENSKPRAILKP [E10V] | 4.35 |
| RNTKRDVTLMASRENSKPRAILKP [E10M] | 3.83 |
| RNTKRDVTLSASRENSKPRAILKP [E10S] | 4.38 |
| RNTKRDVTLYASRENSKPRAILKP [E10Y] | 4 |
| RNTKRDVTLCASRENSKPRAILKP [E10C] | 3.86 |
| RNTKRDVTLLASRENSKPRAILKP [E10L] | 3.6 |
| RNTKRDVTLTASRENSKPRAILKP [E10T] | 3.7 |
| RNTKRDVTLQASRENSKPRAILKP [E10Q] | 4.33 |
| RNTKRDVTLDASRENSKPRAILKP [E10D] | 4.64 |
| RNTKRDVTLPASRENSKPRAILKP [E10P] | 4.55 |
| RNTKRDVTLRASRENSKPRAILKP [E10R] | 4.01 |
| RNTKRDVTLFASRENSKPRAILKP [E10F] | 3.49 |
| RNTKRDVTLKASRENSKPRAILKP [E10K] | 4.52 |
| RNTKRDVTLWASRENSKPRAILKP [E10W] | 2.77 |
| RNTKRDVTLAASRENSKPRAILKP [E10A] | 4.52 |
| RNTKRDVTLEQSRENSKPRAILKP [A11Q] | 4.28 |
| RNTKRDVTLERSRENSKPRAILKP [A11R] | 4.58 |
| RNTKRDVTLEYSRENSKPRAILKP [A11Y] | 3.92 |
| RNTKRDVTLEDSRENSKPRAILKP [A11D] | 4.78 |
| RNTKRDVTLEHSRENSKPRAILKP [A11H] | 4.8 |

| Variant | protein stability index |
| --- | --- |
| RNTKRDVTLENSRENSKPRAILKP [A11N] | 4.3 |
| RNTKRDVTLECSRENSKPRAILKP [A11C] | 4.52 |
| RNTKRDVTLEVSRENSKPRAILKP [A11V] | 4.49 |
| RNTKRDVTLETSRENSKPRAILKP [A11T] | 4.44 |
| RNTKRDVTLEESRENSKPRAILKP [A11E] | 5.24 |
| RNTKRDVTLEGSRENSKPRAILKP [A11G] | 4.49 |
| RNTKRDVTLEFSRENSKPRAILKP [A11F] | 3.59 |
| RNTKRDVTLEKSRENSKPRAILKP [A11K] | 4.23 |
| RNTKRDVTLEMSRENSKPRAILKP [A11M] | 4.36 |
| RNTKRDVTLEISRENSKPRAILKP [A11I] | 3.92 |
| RNTKRDVTLESSRENSKPRAILKP [A11S] | 4.67 |
| RNTKRDVTLEWSRENSKPRAILKP [A11W] | 3.95 |
| RNTKRDVTLEPSRENSKPRAILKP [A11P] | 4.23 |
| RNTKRDVTLELSRENSKPRAILKP [A11L] | 3.35 |
| RNTKRDVTLEASREKSKPRAILKP [N15K] | 4.82 |
| RNTKRDVTLEASRELSKPRAILKP [N15L] | 4.53 |
| RNTKRDVTLEASREASKPRAILKP [N15A] | 4.29 |
| RNTKRDVTLEASRETSKPRAILKP [N15T] | 4.49 |
| RNTKRDVTLEASRECSKPRAILKP [N15C] | 4.13 |
| RNTKRDVTLEASREYSKPRAILKP [N15Y] | 4.09 |
| RNTKRDVTLEASREPSKPRAILKP [N15P] | 4.32 |
| RNTKRDVTLEASREGSKPRAILKP [N15G] | 4.49 |
| RNTKRDVTLEASREQSKPRAILKP [N15Q] | 4.73 |
| RNTKRDVTLEASREHSKPRAILKP [N15H] | 3.94 |

| Variant | protein stability index |
| --- | --- |
| RNTKRDVTLEASREISKPRAILKP [N15I] | 4.59 |
| RNTKRDVTLEASREMSKPRAILKP [N15M] | 4.09 |
| RNTKRDVTLEASREESKPRAILKP [N15E] | 4.92 |
| RNTKRDVTLEASREVSKPRAILKP [N15V] | 4.45 |
| RNTKRDVTLEASRESSKPRAILKP [N15S] | 4.85 |
| RNTKRDVTLEASREWSKPRAILKP [N15W] | 3.77 |
| RNTKRDVTLEASREFSKPRAILKP [N15F] | 4.66 |
| RNTKRDVTLEASREDSKPRAILKP [N15D] | 4.77 |
| RNTKRDVTLEASRERSKPRAILKP [N15R] | 4.22 |
| RNTKRDVTLEAMRENSKPRAILKP [S12M] | 4.12 |
| RNTKRDVTLEAIRENSKPRAILKP [S12I] | 4.07 |
| RNTKRDVTLEAYRENSKPRAILKP [S12Y] | 4.18 |
| RNTKRDVTLEAGRENSKPRAILKP [S12G] | 5.13 |
| RNTKRDVTLEAFRENSKPRAILKP [S12F] | 3.58 |
| RNTKRDVTLEAARENSKPRAILKP [S12A] | 4.12 |
| RNTKRDVTLEATRENSKPRAILKP [S12T] | 4.79 |
| RNTKRDVTLEAQRENSKPRAILKP [S12Q] | 4.42 |
| RNTKRDVTLEANRENSKPRAILKP [S12N] | 4.43 |
| RNTKRDVTLEALRENSKPRAILKP [S12L] | 3.96 |
| RNTKRDVTLEADRENSKPRAILKP [S12D] | 4.8 |
| RNTKRDVTLEAPRENSKPRAILKP [S12P] | 4.45 |
| RNTKRDVTLEAVRENSKPRAILKP [S12V] | 4.33 |
| RNTKRDVTLEACRENSKPRAILKP [S12C] | 3.95 |
| RNTKRDVTLEAKRENSKPRAILKP [S12K] | 4.34 |

| Variant | protein stability index |
| --- | --- |
| RNTKRDVTLEARRENSKPRAILKP [S12R] | 4.41 |
| RNTKRDVTLEAHRENSKPRAILKP [S12H] | 4.73 |
| RNTKRDVTLEAWRENSKPRAILKP [S12W] | 3.79 |
| RNTKRDVTLEAERENSKPRAILKP [S12E] | 4.95 |
| RNTKRDVTLEASRENSKCRAILKP [P18C] | 4.25 |
| RNTKRDVTLEASRENSKFRAILKP [P18F] | 3.79 |
| RNTKRDVTLEASRENSKDRAILKP [P18D] | 5.07 |
| RNTKRDVTLEASRENSKHRAILKP [P18H] | 4.11 |
| RNTKRDVTLEASRENSKIRAILKP [P18I] | 4.27 |
| RNTKRDVTLEASRENSKGRAILKP [P18G] | 4.86 |
| RNTKRDVTLEASRENSKARAILKP [P18A] | 4.52 |
| RNTKRDVTLEASRENSKKRAILKP [P18K] | 4.73 |
| RNTKRDVTLEASRENSKERAILKP [P18E] | 5 |
| RNTKRDVWLEASRENSKPRAILKP [T8W] | 3.66 |
| RNTKRDVRLEASRENSKPRAILKP [T8R] | 4.68 |
| RNTKRDVPLEASRENSKPRAILKP [T8P] | 4.76 |
| RNTKRDVYLEASRENSKPRAILKP [T8Y] | 4.31 |
| RNTKRDVNLEASRENSKPRAILKP [T8N] | 4.98 |
| RNTKRDVSLEASRENSKPRAILKP [T8S] | 4.3 |
| RNTKRDVQLEASRENSKPRAILKP [T8Q] | 4.62 |
| RNTKRDVVLEASRENSKPRAILKP [T8V] | 4.25 |
| RNTKRDVTLEASRWNSKPRAILKP [E14W] | 3.87 |
